Source: the supplement of paper PMC5998384

Assays:
HeLa Kyoto [1] = experiment: solubility change mitosis vs G1/S (difference of NP-40 vs SDS log2 ratios) (log2 ratio difference); higher = more soluble in mitosis
HeLa Kyoto [2] = experiment: melting temperature (median over replicates), in situ; higher = more thermally stable
HeLa Kyoto [3] = experiment: solubility in G1/S (NP-40 vs SDS abundance) (log2 ratio); higher = more soluble; conditions: cell cycle stage: G1/S
HeLa Kyoto [4] = experiment: thermal stability score vs G1/S (z-score of summed log2 fold changes over temperatures); higher = more thermally stable than in G1/S
[5] = cell cycle stage: early G1 (4.5 h after nocodazole release)
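For melting temperature (median over replicates), in situ in this document: HeLa Kyoto cells synchronized by double thymidine or nocodazole block, proteins quantified by TMT10plex mass spectrometry, three independent biological replicates.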
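For solubility change mitosis vs G1/S (difference of NP-40 vs SDS log2 ratios) in this document: synchronized HeLa Kyoto cells (double thymidine block for G1/S, nocodazole release for mitosis), protein amounts in NP-40 versus SDS lysates quantified by mass spectrometry, three biological replicates.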
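For solubility in G1/S (NP-40 vs SDS abundance) in this document: HeLa Kyoto cells arrested at G1/S by double thymidine block, proteins quantified by TMT10plex mass spectrometry in mild NP-40 versus SDS extracts, three biological replicates.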
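For thermal stability score vs G1/S (z-score of summed log2 fold changes over temperatures) in this document: synchronized HeLa Kyoto cells, proteins quantified by TMT10plex mass spectrometry, three biological replicates, mitosis taken 0.5 h after nocodazole release, G1/S directly after double thymidine block.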

Sequence	solubility change mitosis (log2) (HeLa Kyoto [1])	melting temperature (HeLa Kyoto [2]; cell cycle stage: G1/S)	melting temperature (HeLa Kyoto [2]; cell cycle stage: mitosis)	solubility in G1/S (log2) (HeLa Kyoto [3])	thermal stability score (HeLa Kyoto [4]; [5])	thermal stability score (HeLa Kyoto [4]; cell cycle stage: mitosis)
MLLWPLLLLLLLLPTLALLRQQRSQDARLSWLAGLQHRVAWGALVWAATWQRRRLEQSTLHVHQSQQQALRWCLQGAQRPHCSLRRSTDISTFRNHLPLTKASQTQQEDSGEQPLPPTSNQDLGEASLQATLLGLAALNKAYPEVLAQGRTARVTLTSPWPRPLPWPGNTLGQVGTPGTKDPRALLLDALRSPGLRALEAGTAVELLDVFLGLETDGEELAGAIAAGNPGAPLRERAAELREALEQGPRGLALRLWPKLQVVVTLDAGGQAEAVAALGALWCQGLAFFSPAYAASGGVLGLNLQPEQPHGLYLLPPGAPFIELLPVKEGTQEEAASTLLLAEAQQGKEYELVLTDRASLTRCRLGDVVRVVGAYNQCPVVRFICRLDQTLSVRGEDIGEDLFSEALGRAVGQWAGAKLLDHGCVESSILDSSAGSAPHYEVFVALRGLRNLSEENRDKLDHCLQEASPRYKSLRFWGSVGPARVHLVGQGAFRALRAALAACPSSPFPPAMPRVLRHRHLAQCLQERVVS [GHDC]	-0.154	53.7 °C	55.1 °C	-0.104	0.585	1.25
MLMLFVFGVLLHEVSLSGQNEAPPNTHSIPGEPLYNYASIRLPEEHIPFFLHNNRHIATVCRKDSLCPYKKHLEKLKYCWGYEKSCKPEFRFGYPVCSYVDMGWTDTLESAEDIFWKQADFGYARERLEEMHVLCQPKETSDSSLVCSRYLQYCRATNLYLDLRNIKRNHDRFKEDFFQSGEIGGHCKLDIRTLTSEGQRKSPLQSWFAELQSYTQLNFRPIEDAKCDIVIEKPTYFMKLDAGVNMYHHFCDFINLYITQHVNNSFSTDVYIVMWDTSSYGYGDLFSDTWNAFTDYDVIHLKTYDSKRVCFKEAVFSLLPRMRYGLFYNTPLISGCQNTGLFRAFAQHVLHRLNITQEGPKDGKIRVTILARSTEYRKILNQNELVNALKTVSTFEVQIVDYKYRELGFLDQLRITHNTDIFIGMHGAGLTHLLFLPDWAAVFELYNCEDERCYLDLARLRGVHYITWRRQNKVFPQDKGHHPTLGEHPKFTNYSFDVEEFMYLVLQAADHVLQHPKWPFKKKHDEL [EOGT]	-0.00851	53.3 °C	54.9 °C	-0.298	2.26	3.42
MLPARCARLLTPHLLLVLVQLSPARGHRTTGPRFLISDRDPQCNLHCSRTQPKPICASDGRSYESMCEYQRAKCRDPTLGVVHRGRCKDAGQSKCRLERAQALEQAKKPQEAVFVPECGEDGSFTQVQCHTYTGYCWCVTPDGKPISGSSVQNKTPVCSGSVTDKPLSQGNSGRKDDGSKPTPTMETQPVFDGDEITAPTLWIKHLVIKDSKLNNTNIRNSEKVYSCDQERQSALEEAQQNPREGIVIPECAPGGLYKPVQCHQSTGYCWCVLVDTGRPLPGTSTRYVMPSCESDARAKTTEADDPFKDRELPGCPEGKKMEFITSLLDALTTDMVQAINSAAPTGGGRFSEPDPSHTLEERVVHWYFSQLDSNSSNDINKREMKPFKRYVKKKAKPKKCARRFTDYCDLNKDKVISLPELKGCLGVSKEGRLV [SMOC1]	-0.0568		54.9 °C	0.221	-1.94	-1.17
MLPLSIKDDEYKPPKFNLFGKISGWFRSILSDKTSRNLFFFLCLNLSFAFVELLYGIWSNCLGLISDSFHMFFDSTAILAGLAASVISKWRDNDAFSYGYVRAEVLAGFVNGLFLIFTAFFIFSEGVERALAPPDVHHERLLLVSILGFVVNLIGIFVFKHGGHGHSHGSGHGHSHSLFNGALDQAHGHVDHCHSHEVKHGAAHSHDHAHGHGHFHSHDGPSLKETTGPSRQILQGVFLHILADTLGSIGVIASAIMMQNFGLMIADPICSILIAILIVVSVIPLLRESVGILMQRTPPLLENSLPQCYQRVQQLQGVYSLQEQHFWTLCSDVYVGTLKLIVAPDADARWILSQTHNIFTQAGVRQLYVQIDFAAM [SLC30A7]	-0.278	57.8 °C	55.4 °C	0.101	0.255	-1.45
MLRRILQRTPGRVGSQGSDLDSSATPINTVDVNNESSSEGFICPQCMKSLGSADELFKHYEAVHDAGNDSGHGGESNLALKRDDVTLLRQEVQDLQASLKEEKWYSEELKKELEKYQGLQQQEAKPDGLVTDSSAELQSLEQQLEEAQTENFNIKQMKDLFEQKAAQLATEIADIKSKYDEERSLREAAEQKVTRLTEELNKEATVIQDLKTELLQRPGIEDVAVLKKELVQVQTLMDNMTLERERESEKLKDECKKLQSQYASSEATISQLRSELAKGPQEVAVYVQELQKLKSSVNELTQKNQTLTENLLKKEQDYTKLEEKHNEESVSKKNIQATLHQKDLDCQQLQSRLSASETSLHRIHVELSEKGEATQKLKEELSEVETKYQHLKAEFKQLQQQREEKEQHGLQLQSEINQLHSKLLETERQLGEAHGRLKEQRQLSSEKLMDKEQQVADLQLKLSRLEEQLKEKVTNSTELQHQLDKTKQQHQEQQALQQSTTAKLREAQNDLEQVLRQIGDKDQKIQNLEALLQKSKENISLLEKEREDLYAKIQAGEGETAVLNQLQEKNHTLQEQVTQLTEKLKNQSESHKQAQENLHDQVQEQKAHLRAAQDRVLSLETSVNELNSQLNESKEKVSQLDIQIKAKTELLLSAEAAKTAQRADLQNHLDTAQNALQDKQQELNKITTQLDQVTAKLQDKQEHCSQLESHLKEYKEKYLSLEQKTEELEGQIKKLEADSLEVKASKEQALQDLQQQRQLNTDLELRATELSKQLEMEKEIVSSTRLDLQKKSEALESIKQKLTKQEEEKKILKQDFETLSQETKIQHEELNNRIQTTVTELQKVKMEKEALMTELSTVKDKLSKVSDSLKNSKSEFEKENQKGKAAILDLEKTCKELKHQLQVQMENTLKEQKELKKSLEKEKEASHQLKLELNSMQEQLIQAQNTLKQNEKEEQQLQGNINELKQSSEQKKKQIEALQGELKIAVLQKTELENKLQQQLTQAAQELAAEKEKISVLQNNYEKSQETFKQLQSDFYGRESELLATRQDLKSVEEKLSLAQEDLISNRNQIGNQNKLIQELKTAKATLEQDSAKKEQQLQERCKALQDIQKEKSLKEKELVNEKSKLAEIEEIKCRQEKEITKLNEELKSHKLESIKEITNLKDAKQLLIQQKLELQGKADSLKAAVEQEKRNQQILKDQVKKEEEELKKEFIEKEAKLHSEIKEKEVGMKKHEENEAKLTMQITALNENLGTVKKEWQSSQRRVSELEKQTDDLRGEIAVLEATVQNNQDERRALLERCLKGEGEIEKLQTKVLELQRKLDNTTAAVQELGRENQSLQIKHTQALNRKWAEDNEVQNCMACGKGFSVTVRRHHCRQCGNIFCAECSAKNALTPSSKKPVRVCDACFNDLQG [EEA1]	0.0149	57.3 °C	58 °C	0.678	-3.01	-4.2
MLRRRGSPGMGVHVGAALGALWFCLTGALEVQVPEDPVVALVGTDATLCCSFSPEPGFSLAQLNLIWQLTDTKQLVHSFAEGQDQGSAYANRTALFPDLLAQGNASLRLQRVRVADEGSFTCFVSIRDFGSAAVSLQVAAPYSKPSMTLEPNKDLRPGDTVTITCSSYQGYPEAEVFWQDGQGVPLTGNVTTSQMANEQGLFDVHSILRVVLGANGTYSCLVRNPVLQQDAHSSVTITPQRSPTGAVEVQVPEDPVVALVGTDATLRCSFSPEPGFSLAQLNLIWQLTDTKQLVHSFTEGRDQGSAYANRTALFPDLLAQGNASLRLQRVRVADEGSFTCFVSIRDFGSAAVSLQVAAPYSKPSMTLEPNKDLRPGDTVTITCSSYRGYPEAEVFWQDGQGVPLTGNVTTSQMANEQGLFDVHSVLRVVLGANGTYSCLVRNPVLQQDAHGSVTITGQPMTFPPEALWVTVGLSVCLIALLVALAFVCWRKIKQSCEEENAGAEDQDGEGEGSKTALQPLKHSDSKEDDGQEIA [CD276]	-0.0859	59 °C	57.1 °C	0.244	-2.08	-3.76
